# Laboratory results from US20230220042A1 (SHANGHAI JIAO TONG UNIVERSITY SCHOOL OF MEDICINE, published 2023).
# T1: Biotin-FcγRIIB (human, UniProt P31994 43-217, limits assumed, biotin-labelled)
# T1 construct: Bought, biotin-labelled; used at 1 µg/ml for staining and sorting; also called human FcγRIIB; CD32b
# T1 sequence (looked up): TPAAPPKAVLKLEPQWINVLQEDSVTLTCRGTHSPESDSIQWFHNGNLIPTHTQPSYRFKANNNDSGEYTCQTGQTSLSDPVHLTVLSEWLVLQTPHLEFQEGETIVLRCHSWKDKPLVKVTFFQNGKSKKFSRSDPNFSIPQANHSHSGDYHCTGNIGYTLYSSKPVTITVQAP
# Target: T1, Biotin-FcγRIIB
# Experiment: FACS sorting of displayed Fc library on biotin-FcγRIIB, NGS
Increased factor b Site 2 (point mutation/wild-type),Increased factor b Site 1 (point mutation/wild-type),Binder
4.4,,"human IgG2 anti-mouse CD40 surface displayed antibody, Fc mutant S298K (antibody, name in EU numbering, as m1; positions are Eu numbers; copies: 2 + 2) light chain (with the P2A rest): DTVLTQSPALAVSPGERVTISCRASDSVSTLMHWYQQKPGQQPKLLIYLASHLESGVPARFSGSGSGTDFTLTIDPVEADDTATYYCQQSWNDPWTFGGGTKLELKRTVAAPSVFIFPPSDEQLKSGTASVVCLLNNFYPREAKVQWKVDNALQSGNSQESVTEQDSKDSTYSLSSTLTLSKADYEKHKVYACEVTHQGLSSPVTKSFNRGECGSGATNFSLLKQAGDVEENPG heavy chain: EVQLVESDGGLVQPGRSLKLPCAASGFTFSDYYMAWVRQAPTKGLEWVASISYDGSSTYYRDSVKGRFTISRDNAKSTLYLQMDSLRSEDTATYYCGRHSSYFDYWGQGVMVTVSSASTKGPSVFPLAPCSRSTSESTAALGCLVKDYFPEPVTVSWNSGALTSGVHTFPAVLQSSGLYSLSSVVTVPSSNFGTQTYTCNVDHKPSNTKVDKTVERKCCVECPPCPAPPVAGPSVFLFPPKPKDTLMISRTPEVTCVVVDVSHEDPEVQFNWYVDGVEVHNAKTKPREEQFNKTFRVVSVLTVVHQDWLNGKEYKCKVSNKGLPAPIEKTISKTKGQPREPQVYTLPPSREEMTKNQVSLTCLVKGFYPSDIAVEWESNGQPENNYKTTPPMLDSDGSFFLYSKLTVDKSRWQQGNVFSCSVMHEALHNHYTQKSLSLSPGKLEPPPSTVSNMATVAVLVVLGAAIVTGAVVAFVMKMRRRNTGGKGGDYALAPGSQTSDLSLPDCKVMVHDPHSLA"
2.9,,"human IgG2 anti-mouse CD40 surface displayed antibody, Fc mutant S298L (antibody, name in EU numbering, as m1; positions are Eu numbers; copies: 2 + 2) light chain (with the P2A rest): DTVLTQSPALAVSPGERVTISCRASDSVSTLMHWYQQKPGQQPKLLIYLASHLESGVPARFSGSGSGTDFTLTIDPVEADDTATYYCQQSWNDPWTFGGGTKLELKRTVAAPSVFIFPPSDEQLKSGTASVVCLLNNFYPREAKVQWKVDNALQSGNSQESVTEQDSKDSTYSLSSTLTLSKADYEKHKVYACEVTHQGLSSPVTKSFNRGECGSGATNFSLLKQAGDVEENPG heavy chain: EVQLVESDGGLVQPGRSLKLPCAASGFTFSDYYMAWVRQAPTKGLEWVASISYDGSSTYYRDSVKGRFTISRDNAKSTLYLQMDSLRSEDTATYYCGRHSSYFDYWGQGVMVTVSSASTKGPSVFPLAPCSRSTSESTAALGCLVKDYFPEPVTVSWNSGALTSGVHTFPAVLQSSGLYSLSSVVTVPSSNFGTQTYTCNVDHKPSNTKVDKTVERKCCVECPPCPAPPVAGPSVFLFPPKPKDTLMISRTPEVTCVVVDVSHEDPEVQFNWYVDGVEVHNAKTKPREEQFNLTFRVVSVLTVVHQDWLNGKEYKCKVSNKGLPAPIEKTISKTKGQPREPQVYTLPPSREEMTKNQVSLTCLVKGFYPSDIAVEWESNGQPENNYKTTPPMLDSDGSFFLYSKLTVDKSRWQQGNVFSCSVMHEALHNHYTQKSLSLSPGKLEPPPSTVSNMATVAVLVVLGAAIVTGAVVAFVMKMRRRNTGGKGGDYALAPGSQTSDLSLPDCKVMVHDPHSLA"
7.1,,"human IgG2 anti-mouse CD40 surface displayed antibody, Fc mutant S298E (antibody, name in EU numbering, as m1; positions are Eu numbers; copies: 2 + 2) light chain (with the P2A rest): DTVLTQSPALAVSPGERVTISCRASDSVSTLMHWYQQKPGQQPKLLIYLASHLESGVPARFSGSGSGTDFTLTIDPVEADDTATYYCQQSWNDPWTFGGGTKLELKRTVAAPSVFIFPPSDEQLKSGTASVVCLLNNFYPREAKVQWKVDNALQSGNSQESVTEQDSKDSTYSLSSTLTLSKADYEKHKVYACEVTHQGLSSPVTKSFNRGECGSGATNFSLLKQAGDVEENPG heavy chain: EVQLVESDGGLVQPGRSLKLPCAASGFTFSDYYMAWVRQAPTKGLEWVASISYDGSSTYYRDSVKGRFTISRDNAKSTLYLQMDSLRSEDTATYYCGRHSSYFDYWGQGVMVTVSSASTKGPSVFPLAPCSRSTSESTAALGCLVKDYFPEPVTVSWNSGALTSGVHTFPAVLQSSGLYSLSSVVTVPSSNFGTQTYTCNVDHKPSNTKVDKTVERKCCVECPPCPAPPVAGPSVFLFPPKPKDTLMISRTPEVTCVVVDVSHEDPEVQFNWYVDGVEVHNAKTKPREEQFNETFRVVSVLTVVHQDWLNGKEYKCKVSNKGLPAPIEKTISKTKGQPREPQVYTLPPSREEMTKNQVSLTCLVKGFYPSDIAVEWESNGQPENNYKTTPPMLDSDGSFFLYSKLTVDKSRWQQGNVFSCSVMHEALHNHYTQKSLSLSPGKLEPPPSTVSNMATVAVLVVLGAAIVTGAVVAFVMKMRRRNTGGKGGDYALAPGSQTSDLSLPDCKVMVHDPHSLA"

# More lines, now with the values behind:
Binder,Increased factor b Site 2 (point mutation/wild-type),Increased factor b Site 1 (point mutation/wild-type)
"human IgG2 anti-mouse CD40 surface displayed antibody, Fc mutant P331C (antibody, name in EU numbering, as m1; positions are Eu numbers; copies: 2 + 2) light chain (with the P2A rest): DTVLTQSPALAVSPGERVTISCRASDSVSTLMHWYQQKPGQQPKLLIYLASHLESGVPARFSGSGSGTDFTLTIDPVEADDTATYYCQQSWNDPWTFGGGTKLELKRTVAAPSVFIFPPSDEQLKSGTASVVCLLNNFYPREAKVQWKVDNALQSGNSQESVTEQDSKDSTYSLSSTLTLSKADYEKHKVYACEVTHQGLSSPVTKSFNRGECGSGATNFSLLKQAGDVEENPG heavy chain: EVQLVESDGGLVQPGRSLKLPCAASGFTFSDYYMAWVRQAPTKGLEWVASISYDGSSTYYRDSVKGRFTISRDNAKSTLYLQMDSLRSEDTATYYCGRHSSYFDYWGQGVMVTVSSASTKGPSVFPLAPCSRSTSESTAALGCLVKDYFPEPVTVSWNSGALTSGVHTFPAVLQSSGLYSLSSVVTVPSSNFGTQTYTCNVDHKPSNTKVDKTVERKCCVECPPCPAPPVAGPSVFLFPPKPKDTLMISRTPEVTCVVVDVSHEDPEVQFNWYVDGVEVHNAKTKPREEQFNSTFRVVSVLTVVHQDWLNGKEYKCKVSNKGLPACIEKTISKTKGQPREPQVYTLPPSREEMTKNQVSLTCLVKGFYPSDIAVEWESNGQPENNYKTTPPMLDSDGSFFLYSKLTVDKSRWQQGNVFSCSVMHEALHNHYTQKSLSLSPGKLEPPPSTVSNMATVAVLVVLGAAIVTGAVVAFVMKMRRRNTGGKGGDYALAPGSQTSDLSLPDCKVMVHDPHSLA",0.2,
"human IgG2 anti-mouse CD40 surface displayed antibody, Fc mutant P331T (antibody, name in EU numbering, as m1; positions are Eu numbers; copies: 2 + 2) light chain (with the P2A rest): DTVLTQSPALAVSPGERVTISCRASDSVSTLMHWYQQKPGQQPKLLIYLASHLESGVPARFSGSGSGTDFTLTIDPVEADDTATYYCQQSWNDPWTFGGGTKLELKRTVAAPSVFIFPPSDEQLKSGTASVVCLLNNFYPREAKVQWKVDNALQSGNSQESVTEQDSKDSTYSLSSTLTLSKADYEKHKVYACEVTHQGLSSPVTKSFNRGECGSGATNFSLLKQAGDVEENPG heavy chain: EVQLVESDGGLVQPGRSLKLPCAASGFTFSDYYMAWVRQAPTKGLEWVASISYDGSSTYYRDSVKGRFTISRDNAKSTLYLQMDSLRSEDTATYYCGRHSSYFDYWGQGVMVTVSSASTKGPSVFPLAPCSRSTSESTAALGCLVKDYFPEPVTVSWNSGALTSGVHTFPAVLQSSGLYSLSSVVTVPSSNFGTQTYTCNVDHKPSNTKVDKTVERKCCVECPPCPAPPVAGPSVFLFPPKPKDTLMISRTPEVTCVVVDVSHEDPEVQFNWYVDGVEVHNAKTKPREEQFNSTFRVVSVLTVVHQDWLNGKEYKCKVSNKGLPATIEKTISKTKGQPREPQVYTLPPSREEMTKNQVSLTCLVKGFYPSDIAVEWESNGQPENNYKTTPPMLDSDGSFFLYSKLTVDKSRWQQGNVFSCSVMHEALHNHYTQKSLSLSPGKLEPPPSTVSNMATVAVLVVLGAAIVTGAVVAFVMKMRRRNTGGKGGDYALAPGSQTSDLSLPDCKVMVHDPHSLA",0.1,
"human IgG2 anti-mouse CD40 surface displayed antibody, Fc mutant S267A (antibody, name in EU numbering, as m1; positions are Eu numbers; copies: 2 + 2) light chain (with the P2A rest): DTVLTQSPALAVSPGERVTISCRASDSVSTLMHWYQQKPGQQPKLLIYLASHLESGVPARFSGSGSGTDFTLTIDPVEADDTATYYCQQSWNDPWTFGGGTKLELKRTVAAPSVFIFPPSDEQLKSGTASVVCLLNNFYPREAKVQWKVDNALQSGNSQESVTEQDSKDSTYSLSSTLTLSKADYEKHKVYACEVTHQGLSSPVTKSFNRGECGSGATNFSLLKQAGDVEENPG heavy chain: EVQLVESDGGLVQPGRSLKLPCAASGFTFSDYYMAWVRQAPTKGLEWVASISYDGSSTYYRDSVKGRFTISRDNAKSTLYLQMDSLRSEDTATYYCGRHSSYFDYWGQGVMVTVSSASTKGPSVFPLAPCSRSTSESTAALGCLVKDYFPEPVTVSWNSGALTSGVHTFPAVLQSSGLYSLSSVVTVPSSNFGTQTYTCNVDHKPSNTKVDKTVERKCCVECPPCPAPPVAGPSVFLFPPKPKDTLMISRTPEVTCVVVDVAHEDPEVQFNWYVDGVEVHNAKTKPREEQFNSTFRVVSVLTVVHQDWLNGKEYKCKVSNKGLPAPIEKTISKTKGQPREPQVYTLPPSREEMTKNQVSLTCLVKGFYPSDIAVEWESNGQPENNYKTTPPMLDSDGSFFLYSKLTVDKSRWQQGNVFSCSVMHEALHNHYTQKSLSLSPGKLEPPPSTVSNMATVAVLVVLGAAIVTGAVVAFVMKMRRRNTGGKGGDYALAPGSQTSDLSLPDCKVMVHDPHSLA",,5.5
"human IgG2 anti-mouse CD40 surface displayed antibody, Fc mutant S267M (antibody, name in EU numbering, as m1; positions are Eu numbers; copies: 2 + 2) light chain (with the P2A rest): DTVLTQSPALAVSPGERVTISCRASDSVSTLMHWYQQKPGQQPKLLIYLASHLESGVPARFSGSGSGTDFTLTIDPVEADDTATYYCQQSWNDPWTFGGGTKLELKRTVAAPSVFIFPPSDEQLKSGTASVVCLLNNFYPREAKVQWKVDNALQSGNSQESVTEQDSKDSTYSLSSTLTLSKADYEKHKVYACEVTHQGLSSPVTKSFNRGECGSGATNFSLLKQAGDVEENPG heavy chain: EVQLVESDGGLVQPGRSLKLPCAASGFTFSDYYMAWVRQAPTKGLEWVASISYDGSSTYYRDSVKGRFTISRDNAKSTLYLQMDSLRSEDTATYYCGRHSSYFDYWGQGVMVTVSSASTKGPSVFPLAPCSRSTSESTAALGCLVKDYFPEPVTVSWNSGALTSGVHTFPAVLQSSGLYSLSSVVTVPSSNFGTQTYTCNVDHKPSNTKVDKTVERKCCVECPPCPAPPVAGPSVFLFPPKPKDTLMISRTPEVTCVVVDVMHEDPEVQFNWYVDGVEVHNAKTKPREEQFNSTFRVVSVLTVVHQDWLNGKEYKCKVSNKGLPAPIEKTISKTKGQPREPQVYTLPPSREEMTKNQVSLTCLVKGFYPSDIAVEWESNGQPENNYKTTPPMLDSDGSFFLYSKLTVDKSRWQQGNVFSCSVMHEALHNHYTQKSLSLSPGKLEPPPSTVSNMATVAVLVVLGAAIVTGAVVAFVMKMRRRNTGGKGGDYALAPGSQTSDLSLPDCKVMVHDPHSLA",,2.6
